Experimental data taken from PMC7515726.

Key:
Assay in all cases: affinity purification with mass spectrometry
[1] = target: Nuc1, acidic patch mutant nucleosome (hH2A.Dx10), biotinylated 185 bp 601 DNA (human) (UniProt P62807)
[2] = target: Nuc2, disk patch 2 mutant nucleosome (hH2A.Dx2, hH2B.Cx8), biotinylated 185 bp 601 DNA (human) (UniProt Q71DI3)
[3] = target: Nuc3, disk patch 3 mutant nucleosome (hH3.2x10, hH4x24, hH2B.Cx9), biotinylated 185 bp 601 DNA (human) (UniProt P20671)

Chain of RNF2 (RING finger protein 2) (Q9CQJ4 whole entry): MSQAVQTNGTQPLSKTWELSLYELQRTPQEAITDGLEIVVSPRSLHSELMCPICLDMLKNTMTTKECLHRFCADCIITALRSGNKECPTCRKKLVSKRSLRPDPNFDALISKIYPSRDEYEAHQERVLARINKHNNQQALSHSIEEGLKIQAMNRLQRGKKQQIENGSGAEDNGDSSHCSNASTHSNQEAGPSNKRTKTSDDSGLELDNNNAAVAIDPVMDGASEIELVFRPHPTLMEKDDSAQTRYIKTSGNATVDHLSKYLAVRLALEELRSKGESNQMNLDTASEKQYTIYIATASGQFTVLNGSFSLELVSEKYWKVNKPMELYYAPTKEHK
Chain of RUVBL2 (Q9WTM5 whole entry): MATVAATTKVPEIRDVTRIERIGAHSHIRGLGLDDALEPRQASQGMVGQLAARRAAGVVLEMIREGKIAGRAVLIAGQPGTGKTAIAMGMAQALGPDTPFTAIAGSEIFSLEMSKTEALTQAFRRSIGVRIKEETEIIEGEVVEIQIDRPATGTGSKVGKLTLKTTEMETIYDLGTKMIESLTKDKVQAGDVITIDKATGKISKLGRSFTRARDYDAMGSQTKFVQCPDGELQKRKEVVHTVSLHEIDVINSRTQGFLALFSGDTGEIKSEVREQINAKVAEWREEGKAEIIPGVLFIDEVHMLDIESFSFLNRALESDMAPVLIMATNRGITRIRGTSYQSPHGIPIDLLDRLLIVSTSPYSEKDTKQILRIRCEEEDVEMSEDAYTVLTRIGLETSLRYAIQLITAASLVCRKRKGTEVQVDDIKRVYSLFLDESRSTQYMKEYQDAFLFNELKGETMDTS
Chain of RUVBL1 (P60122 whole entry): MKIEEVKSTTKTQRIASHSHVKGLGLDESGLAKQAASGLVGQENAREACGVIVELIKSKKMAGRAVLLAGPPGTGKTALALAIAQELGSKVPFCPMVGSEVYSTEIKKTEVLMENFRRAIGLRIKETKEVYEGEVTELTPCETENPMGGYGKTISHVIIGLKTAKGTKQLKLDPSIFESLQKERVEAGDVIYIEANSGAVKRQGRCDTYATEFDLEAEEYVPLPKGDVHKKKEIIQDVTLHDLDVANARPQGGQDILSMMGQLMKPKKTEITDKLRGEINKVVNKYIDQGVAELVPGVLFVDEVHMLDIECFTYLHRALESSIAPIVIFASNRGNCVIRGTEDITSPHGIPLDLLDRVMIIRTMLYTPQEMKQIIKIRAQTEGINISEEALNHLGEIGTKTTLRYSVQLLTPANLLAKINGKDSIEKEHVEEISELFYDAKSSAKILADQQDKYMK

## RNF2 (RING finger protein 2) (from UniProt Q9CQJ4 1-336) (natural protein)
[1]
  fold decrease in binding vs wild-type nucleosome: 1.5 fold

## HMGN2 (high mobility group nucleosome-binding domain-containing protein 2) (from UniProt P09602 1-90) (natural protein)
[1]
  fold decrease in binding vs wild-type nucleosome: 27 fold
[2]
  fold decrease in binding vs wild-type nucleosome: 13 fold

## RUVBL2 (from UniProt Q9WTM5 1-463) (natural protein)
[3]
  fold decrease in binding vs wild-type nucleosome: 1.38 fold

## methylcytosine dioxygenase Tet1 (from UniProt Q3URK3 1-2039) (enzyme)
[1]
  fold decrease in binding vs wild-type nucleosome: 1.8 fold

## DNMT1 DNA methyltransferase (from UniProt P13864 1-1620) (enzyme)
[1]
  fold decrease in binding vs wild-type nucleosome: 1.72 fold

## RUVBL1 (from UniProt P60122 1-456) (natural protein)
[3]
  fold decrease in binding vs wild-type nucleosome: 1.33 fold
